Three molecules from patent US20200071424A1 (SHIONOGI, published 2020) can be followed below.

Substitutions are numbered along the chain they refer to.

For assay [1], the target named is baboon EL (baboon). Kind of assay: cell-based or functional assay.
Assay [2] has as its target human-mouse chimeric EL (construct not specified). Kind of assay: cell-based or functional assay.
The target in assay [3] is cynomolgus monkey EL (cynomolgus monkey). Kind of assay: cell-based or functional assay.
Assay [4] addresses T1, human [1-157]-mouse chimeric EL (human; mouse, UniProt Q9WVG5 158-500).
T1 construct: Heparin extract, detected by an anti-C2-tag antibody
T1 sequence: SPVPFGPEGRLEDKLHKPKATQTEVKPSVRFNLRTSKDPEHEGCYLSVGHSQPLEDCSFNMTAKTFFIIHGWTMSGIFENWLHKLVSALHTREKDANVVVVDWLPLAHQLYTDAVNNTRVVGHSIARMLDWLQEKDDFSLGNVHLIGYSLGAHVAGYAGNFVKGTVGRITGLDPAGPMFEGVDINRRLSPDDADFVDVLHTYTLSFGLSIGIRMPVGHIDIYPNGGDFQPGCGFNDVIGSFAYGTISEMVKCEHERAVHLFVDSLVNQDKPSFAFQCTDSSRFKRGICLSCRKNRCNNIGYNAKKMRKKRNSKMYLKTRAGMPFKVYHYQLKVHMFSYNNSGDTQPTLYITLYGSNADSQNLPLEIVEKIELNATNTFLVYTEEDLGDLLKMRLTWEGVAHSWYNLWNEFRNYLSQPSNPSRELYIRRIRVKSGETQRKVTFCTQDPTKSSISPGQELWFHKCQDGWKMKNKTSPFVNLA
The assay can be described thus: ELISA: antibody captured on anti-mouse IgG-Fc plate, EL heparin extract added, detection with biotin anti-C2-tag antibody and HRP-streptavidin, A450. How it is done: (§1) Assay buffer containing 15 μl of anti-EL antibody was added to anti-mouse IgG-Fc antibody-immobilized microtiter plate, and incubated for 2 hr. […] After washing the wells three times with 90 μL of washing buffer, 15 μl of assay buffer containing biotin-labeled anti-C2-tag antibody and HRP-labeled Streptavidin were added to the wells and incubated at room temperature for 1 hr. After washing the wells three times with 90 μL of washing buffer, 15 μL of TMB+—Substrate—Chromogen (DAKO) was added and incubated at room temperature for 30 min and then 15 μL of 0.05 M H2SO₄ was added and absorbance at 450 nm was measured (FIG. 3A to 3K).
(In general: In an ELISA, binding on a coated surface is turned into a signal by an enzyme label.)

Assay [5] addresses T2, cynomolgus monkey EL (cynomolgus monkey).
T2 construct: Heparin extract; also called cynomolgus EL; Cynomolgus EL
Described as above. How it is done: as §1

The target of assay [6] is T3, mouse EL (mouse, UniProt Q9WVG5 21-500).
T3 construct: Heparin extract
T3 sequence (looked up): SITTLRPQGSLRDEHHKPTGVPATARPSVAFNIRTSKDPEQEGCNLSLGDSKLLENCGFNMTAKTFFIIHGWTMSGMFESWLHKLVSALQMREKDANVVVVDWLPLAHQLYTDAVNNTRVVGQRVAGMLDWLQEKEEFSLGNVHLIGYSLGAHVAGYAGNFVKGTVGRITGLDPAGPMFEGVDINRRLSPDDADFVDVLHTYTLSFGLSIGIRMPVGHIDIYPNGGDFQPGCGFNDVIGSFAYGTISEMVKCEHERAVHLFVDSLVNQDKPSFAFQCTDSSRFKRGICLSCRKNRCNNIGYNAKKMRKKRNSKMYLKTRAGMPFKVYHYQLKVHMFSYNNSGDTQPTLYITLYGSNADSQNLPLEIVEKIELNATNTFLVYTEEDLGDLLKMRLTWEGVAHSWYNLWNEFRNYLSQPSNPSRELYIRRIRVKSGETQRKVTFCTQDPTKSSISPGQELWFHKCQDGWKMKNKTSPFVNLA
The assay is described as above. How it is done: as §1

In assay [7] the target is T4, baboon EL (baboon).
T4 construct: Heparin extract
Kind of assay: Biacore; EL captured by anti-C2-tag Ab; bivalent fit. The method, then: (§2) The binding affinities of anti-EL antibodies were measured using Biacore. […] Then, anti-EL antibodies were added and the binding affinities were calculated by bivalent fitting of BIAevaluation software.
A general note: Surface plasmon resonance follows binding to a sensor surface in real time, without labels.

The target in assay [8] is T5, human [1-305]-mouse chimeric EL (human; mouse, UniProt Q9WVG5 306-500).
T5 construct: Heparin extract, captured or detected by an anti-C2-tag antibody; also called human-mouse chimeric EL
T5 sequence: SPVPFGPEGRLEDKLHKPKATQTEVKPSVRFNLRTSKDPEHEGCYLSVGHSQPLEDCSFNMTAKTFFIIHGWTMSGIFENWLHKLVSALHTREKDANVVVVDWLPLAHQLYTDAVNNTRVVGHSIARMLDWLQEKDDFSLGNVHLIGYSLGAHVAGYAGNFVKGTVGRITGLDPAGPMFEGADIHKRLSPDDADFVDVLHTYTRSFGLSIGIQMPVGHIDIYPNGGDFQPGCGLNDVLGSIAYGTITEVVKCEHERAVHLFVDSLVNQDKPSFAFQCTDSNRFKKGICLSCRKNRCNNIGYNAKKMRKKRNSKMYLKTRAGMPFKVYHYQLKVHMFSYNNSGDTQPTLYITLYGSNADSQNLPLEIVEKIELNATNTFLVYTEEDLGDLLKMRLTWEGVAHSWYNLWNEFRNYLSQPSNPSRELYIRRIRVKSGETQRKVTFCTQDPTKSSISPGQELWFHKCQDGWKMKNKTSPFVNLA
Described as above. The method, then: as §2

In assay [9] the target is T2, cynomolgus monkey EL. The assay is described as above. How it is done:
as §2

Assay [10] concerns the target T4, baboon EL. Kind of assay: ELISA: antibody captured on anti-mouse IgG-Fc plate, EL heparin extract added, detection with biotin anti-C2-tag antibody and HRP-streptavidin, A450. The method, then: as §1

By EC50 (read off the curve) is commonly meant the concentration that produces a half-maximal response. In general, koff refers to the rate constant with which the complex falls apart. One may read the kon as a measure of how fast the partners come together.

B1: 14A1 (antibody, mouse IgG1, V domains shown)
VH: QIQLVQSGPELKKPGETVKISCKASGYTFTNYGMNWVKQAPGKGLKWMGWINTYSGVPTYADDFKGRFAFSLETSASTAYLQINNFKNEDTATYFCARFSYYGRHYFDYWGQGTALTASS
VL: DIVLTQSPASLAVSLGQRATISCKASQSVDYDGDSYMNWYQQKPGQPPKLLIYAASNLKSGIPARFSGSGSGTDFTLNIHPVEEEDAATYYCQQTTDDPPWTFGGGTKLEIK
notes: mouse IgG1 from hybridoma
Consider B1, for which the “Neutralizing activity IC50” value in assay [1] came to 2.7 nM; in assay [2], 5.8 nM; in assay [3] it was 3.1 nM. The entries for the “EC50 (read off the curve)” value in assay [4] and in assay [5] were about 7 ng/mL and about 20 ng/mL, respectively. In assay [6], the binding result is “no binding (tested: about 330 ng/mL)”. Also, the values for the Kd in [7], in assay [8] and in assay [9] were 3.3 nM, 0.5 nM and 3.9 nM, respectively. Moreover, the koff in assay [7] was determined as 0.00062 s⁻¹; in [8] it was 0.0001 s⁻¹; in [9], 0.00081 s⁻¹. The figures for the kon in assay [7], in assay [8] and in assay [9] were 190000 M⁻¹ s⁻¹, 210000 M⁻¹ s⁻¹ and 210000 M⁻¹ s⁻¹, respectively.

B2: 7D4 (antibody, mouse IgG1, V domains shown)
VH: B1 VH with G44D, F86L, A115T, A118V
VL: B1 VL with K49Q, K59G, Q93H, T95S
notes: mouse IgG1 from hybridoma
For the molecule B2, the “Neutralizing activity IC50” value in [1] was 2.6 nM; in assay [2], 3.7 nM; in assay [3] it was 2.1 nM. Moreover, the figures for the concentration giving a half-maximal response (EC50 (read off the curve)) in assay [4], in assay [10] and in assay [5] were about 6 ng/mL, about 9 ng/mL and about 10 ng/mL, respectively. In addition, in assay [6], the binding result is recorded as “no binding (tested: about 330 ng/mL)”. The Kd turned out to be 4.5 nM in [7], 0.97 nM in assay [8] and 1.9 nM in assay [9]. Moreover, the off-rate constant (koff) in [7] came out at 0.00035 s⁻¹; in assay [8], 0.00011 s⁻¹; in assay [9], 0.00023 s⁻¹. Also, the on-rate (kon) in assay [7] was determined as 78000 M⁻¹ s⁻¹; in assay [8] it was 110000 M⁻¹ s⁻¹; in assay [9] it was 120000 M⁻¹ s⁻¹.

B3: 2D5 (antibody, mouse IgG2a, V domains shown)
VH: B1 VH with A61T, Y80F, F86L, A115T, A118V
VL: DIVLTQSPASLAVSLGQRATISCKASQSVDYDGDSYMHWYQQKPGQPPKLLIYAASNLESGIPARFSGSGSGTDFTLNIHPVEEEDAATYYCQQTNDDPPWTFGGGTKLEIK
notes: mouse IgG2a from hybridoma
As to B3, the “Neutralizing activity IC50” value was found to be 2.9 nM in assay [1], 2.7 nM in assay [2] and 3 nM in assay [3]. The “EC50 (read off the curve)” value in [4] was about 8 ng/mL; in [10], about 20 ng/mL; in assay [5], about 10 ng/mL. Besides, in assay [6], the binding result is “no binding (tested: about 330 ng/mL)”. In addition, the figures for the Kd in [7], in assay [8] and in [9] were 2.2 nM, 1.1 nM and 3.8 nM, respectively. The koff in [7] was determined as 0.00017 s⁻¹; in [8] it was 9.3e-05 s⁻¹; in assay [9], 0.00028 s⁻¹. For the same molecule, the on-rate constant (kon) in assay [7] worked out at 77000 M⁻¹ s⁻¹; in assay [8], 85000 M⁻¹ s⁻¹; in assay [9] it was 74000 M⁻¹ s⁻¹.
